Results: article PMC12135040, “Long-Acting Human PASylated Leptin Reaches the Murine Central Nervous System and Offers Potential for Optimized Replacement Therapy” (Molecular Pharmaceutics, 2025)
Like-named read-outs stand apart in the source and are kept apart here. One block for each molecule: values may come before it.

What was measured:
[1] = molecular target: T1, recombinant LepR-Fc fusion protein (human, UniProt P48357 22-839)
T1 sequence (looked up): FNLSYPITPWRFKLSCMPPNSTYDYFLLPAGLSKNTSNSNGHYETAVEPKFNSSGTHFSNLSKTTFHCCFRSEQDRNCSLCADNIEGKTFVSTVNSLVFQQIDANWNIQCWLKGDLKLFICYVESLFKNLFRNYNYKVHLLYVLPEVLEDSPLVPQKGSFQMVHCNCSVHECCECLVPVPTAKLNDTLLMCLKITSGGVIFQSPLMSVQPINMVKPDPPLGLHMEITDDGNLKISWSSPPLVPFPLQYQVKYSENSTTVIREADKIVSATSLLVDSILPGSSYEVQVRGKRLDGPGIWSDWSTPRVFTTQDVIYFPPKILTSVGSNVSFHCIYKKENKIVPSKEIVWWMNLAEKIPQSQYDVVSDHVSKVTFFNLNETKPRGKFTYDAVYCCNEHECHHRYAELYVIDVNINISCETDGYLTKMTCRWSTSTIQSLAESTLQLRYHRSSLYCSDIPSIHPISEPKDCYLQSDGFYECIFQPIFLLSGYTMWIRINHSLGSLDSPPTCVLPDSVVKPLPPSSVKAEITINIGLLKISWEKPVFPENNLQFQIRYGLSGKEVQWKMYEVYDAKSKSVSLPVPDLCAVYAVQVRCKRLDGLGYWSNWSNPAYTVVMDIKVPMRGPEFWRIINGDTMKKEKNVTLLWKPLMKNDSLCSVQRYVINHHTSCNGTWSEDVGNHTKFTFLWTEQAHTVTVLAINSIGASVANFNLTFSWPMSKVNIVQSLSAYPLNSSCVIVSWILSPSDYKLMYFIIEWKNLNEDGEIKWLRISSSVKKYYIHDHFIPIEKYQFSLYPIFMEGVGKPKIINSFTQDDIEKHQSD

[2] = molecular target: T1, recombinant LepR-Fc fusion protein; experiment: cell-based or functional assay

Molecule: human wild-type leptin (recombinant, unmodified) (from UniProt P41159 22-167) (ligand)
- EC50 of STAT3-responsive dual luciferase reporter in HEK293 cells transiently transfected with human LepRb (whole receptor on cells); leptin 50 fM to 500 nM, 18 h [1]: 100 pM

Molecule: murine leptin (recombinant, unmodified) (from UniProt P41160 22-167) (ligand)
- EC50 of STAT3-responsive dual luciferase reporter in HEK293 cells transiently transfected with human LepRb (whole receptor on cells); leptin 50 fM to 500 nM, 18 h [1]: 40 pM

Molecule: huLeptin^W100Q (recombinant, unmodified) (from UniProt P41159 22-167) (ligand)
- EC50 of STAT3-responsive dual luciferase reporter in HEK293 cells transiently transfected with human LepRb (whole receptor on cells); leptin 50 fM to 500 nM, 18 h [1]: 130 pM

Molecule: huLeptin^W100E (recombinant, unmodified) (from UniProt P41159 22-167) (ligand)
- EC50 of STAT3-responsive dual luciferase reporter in HEK293 cells transiently transfected with human LepRb (whole receptor on cells); leptin 50 fM to 500 nM, 18 h [1]: 100 pM

Now from value to molecule:

- EC50 of STAT3-responsive dual luciferase reporter in HEK293 cells transiently transfected with human LepRb (whole receptor on cells); PASylated leptin 50 fM to 500 nM, 18 h [1]: 1200 pM
Molecule: PAS(200)-huLeptin (human wild-type leptin, PASylated) (from UniProt P41159 22-167) (ligand)

- EC50 of STAT3-responsive dual luciferase reporter in HEK293 cells transiently transfected with human LepRb (whole receptor on cells); PASylated leptin 50 fM to 500 nM, 18 h [2]: 160 pM
B1: His6-PAS(200)-muLeptin (ligand)
chain: ASPAAPAPASPAAPAPSAPAASPAAPAPASPAAPAPSAPAASPAAPAPASPAAPAPSAPAASPAAPAPASPAAPAPSAPAASPAAPAPASPAAPAPSAPAASPAAPAPASPAAPAPSAPAASPAAPAPASPAAPAPSAPAASPAAPAPASPAAPAPSAPAASPAAPAPASPAAPAPSAPAASPAAPAPASPAAPAPSAPAAVPIQKVQDDTKTLIKTIVTRINDISHTQSVSAKQRVTGLDFIPGLHPILSLSKMDQTLAVYQQVLTSLPSQNVLQIANDLENLRDLLHLLAFSKSCSLPQTSGLQKPESLDGVLEASLYSTEVVALSRLQGSLQDILQQLDVSPEC
